First the molecules themselves.
B1: Ropporin-1B (Homo sapiens), Q9BZX4 (parent)
chain: MAQTDKPTCIPPELPKMLKEFAKAAIRAQPQDLIQWGADYFEALSRGETPPVRERSERVALCNWAELTPELLKILHSQVAGRLIIRAEELAQMWKVVNLPTDLFNSVMNVGRFTEEIEWLKFLALACSALGVTITKTLKIVCEVLSCDHNGGLPRIPFSTFQFLYTYIAEVDGEICASHVSRMLNYIEQEVIGPDGLITVNDFTQNPRVWLE
B2: A-kinase anchor protein 3 (Homo sapiens), O75969 (parent)
chain: MSEKVDWLQSQNGVCKVDVYSPGDNQAQDWKMDTSTDPVRVLSWLRRDLEKSTAEFQDVRFKPGESFGGETSNSGDPHKGFSVDYYNTTTKGTPERLHFEMTHKEIPCQGPRAQLGNGSSVDEVSFYANRLTNLVIAMARKEINEKIDGSENKCVYQSLYMGNEPTPTKSLSKIASELVNETVSACSRNAAPDKAPGSGDRVSGSSQSPPNLKYKSTLKIKESTKERQGPDDKPPSKKSFFYKEVFESRNGDYAREGGRFFPRERKRFRGQERPDDFTASVSEGIMTYANSVVSDMMVSIMKTLKIQVKDTTIATILLKKVLLKHAKEVVSDLIDSFLRNLHSVTGTLMTDTQFVSAVKRTVFSHGSQKATDIMDAMLRKLYNVMFAKKVPEHVRKAQDKAESYSLISMKGMGDPKNRNVNFAMKSETKLREKMYSEPKSEEETCAKTLGEHIIKEGLTLWHKTQQKECKSLGFQHAAFEAPNTQRKPASDISFEYPEDIGNLSLPPYPPEKPENFMYDSDSWAEDLIVSALLLIQYHLAQGGRRDARSFVEAAGTTNFPANEPPVAPDESCLKSAPIVGDQEQAEKKDLRSVFFNFIRNLLSETIFKRDQSPEPKVPEQPVKEDRKLCERPLASSPPRLYEDDETPGALSGLTKMAVSQIDGHMSGQMVEHLMNSVMKLCVIIAKSCDASLAELGDDKSGDASRLTSAFPDSLYECLPAKGTGSAEAVLQNAYQAIHNEMRGTSGQPPEGCAAPTVIVSNHNLTDTVQNKQLQAVLQWVAASELNVPILYFAGDDEGIQEKLLQLSAAAVDKGCSVGEVLQSVLRYEKERQLNEAVGNVTPLQLLDWLMVNL

Variants of B1 are the subject of the first test. Particulars: with akap3_human AKAP3, O75969.
In the case of L18A, the “effect of a mutation on the interaction” value is “decreasing interaction”.

Variants of B2 are the subject of the next test. To be noted: with rop1b_human ROPN1B, Q9BZX4.
Take L131P: the “effect of a mutation on the interaction” value is given as “decreasing interaction”.

Variants of B2 are the subject of another test. Particulars: with kap2_human PRKAR2A.
In the case of L131P, the “effect of a mutation on the interaction” value is listed as “decreasing interaction”.

The values above are taken from IntAct's records for PubMed 11278869.
